Experimental data: patent US20110124071A1, “METHODS AND COMPOSITIONS FOR PRODUCING HYDROCARBONS” (priority 2009, published 2011)

Tested on: E. coli MG1655
Assay: Coexpression of putative decarbonylase with S. elongatus PCC7942 orf1594 in E. coli, GC-MS of extracts
Assay type: cell-based
Conditions: coexpressed with S. elongatus PCC7942 orf1594 in E. coli MG1655, M9 minimal media
Description: After a 1 μl splitless injection (inlet temperature held at 300° C.) onto the GC/MS column, the oven was held at 100° C. for 3 mins. The temperature was ramped up to 320° C. at a rate of 20° C./min. The oven was held at 320° C. for an additional 5 min. The flow rate of the carrier gas helium was 1.3 ml/min. The MS quadrapole scanned from 50 to 550 m/z. Retention times and fragmentation patterns of product peaks were compared with authentic references to confirm peak identity.
The genomic DNA encoding Synechococcus elongatus PCC7942 orf1594 (YP—400611; putative aldehyde-generating enzyme) (SEQ ID NO: 65) was amplified and cloned into the NcoI and EcoRI sites of vector OP-80 (pCL1920 derivative) under the control of the Ptrc promoter. The resulting construct (“OP80-PCC7942—1594”) was transformed into E. coli MG1655 and the cells were grown at 37° C. in M9 minimal media with 1% (w/v) glucose as carbon source and supplemented with 100 μg/ml spectinomycin. When the culture reached OD600 of 0.8-1.0, it was induced with 1 mM IPTG and cells were grown for an additional 18-20 h at 37° C. Cells from 0.5 ml of culture were extracted with 0.5 ml of ethyl acetate. After sonication for 60 min, the sample was centrifuged at 15,000 rpm for 5 min. The solvent layer was analyzed by GC-MS as described in Example 1.
The genomic DNA encoding Synechococcus elongatus PCC7942 orf1593 (YP—400610; putative decarbonylase) (SEQ ID NO: 1) was amplified and cloned into the NdeI and XhoI sites of vector OP-183 (pACYC derivative) under the control of the Ptrc promoter. The resulting construct was cotransformed with OP80-PCC7942—1594 into E. coli MG1655 and the cells were grown at 37° C. in M9 minimal media supplemented with 100 μg/ml spectinomycin and 100 μg/ml carbenicillin. The cells were cultured and extracted as in Example 3 and analyzed by GC-MS as described in Example 1. […]

Molecule | fatty aldehyde decarbonylase activity (alkane/alkene production)
PCC7942—1593: Synechococcus elongatus PCC7942 orf1593 putative decarbonylase (SEQ ID NO: 1) | active fatty aldehyde decarbonylase
ATCC51142 cce—0778: Cyanothece sp. ATCC51142 putative decarbonylase (SEQ ID NO: 27) (protein, listed as Cyanothece sp.) MQELALRSELDFNSETYKDAYSRINAIVIEGEQEAYQNYLDMAQLLPEDEAELIRLSKMENRHKKGFQACGKNLNVTPDMDYAQQFFAELHGNFQKAKAEGKIVTCLLIQSLIIEAFAIAAYNIYIPVADPFARKITEGVVKDEYTHLNFGEVWLKEHFEASKAELEDANKENLPLVWQMLNQVEKDAEVLGMEKEALVEDFMISYGEALSNIGFSTREIMKMSAYGLRAA | active fatty aldehyde decarbonylase
tll1313: Thermosynechococcus elongatus BP-1 putative decarbonylase (SEQ ID NO: 11) (protein, listed as Thermosynechococcus elongatus) MTTATATPVLDYHSDRYKDAYSRINAIVIEGEQEAHDNYIDLAKLLPQHQEELTRLAKMEARHKKGFEACGRNLSVTPDMEFAKAFFEKLRANFQRALAEGKTATCLLIQALIIESFAIAAYNIYIPMADPFARKITESVVKDEYSHLNFGEIWLKEHFESVKGELEEANRANLPLVWKMLNQVEADAKVLGMEKDALVEDFMIQYSGALENIGFTTREIMKMSVYGLTGA | active fatty aldehyde decarbonylase
PM1231: Prochlorococcus marinus MIT9313 putative decarbonylase (SEQ ID NO: 17) (protein, listed as Prochlorococcus marinus) MPTLEMPVAAVLDSTVGSSEALPDFTSDRYKDAYSRINAIVIEGEQEAHDNYIAIGTLLPDHVEELKRLAKMEMRHKKGFTACGKNLGVEADMDFAREFFAPLRDNFQTALGQGKTPTCLLIQALLIEAFAISAYHTYIPVSDPFARKITEGVVKDEYTHLNYGEAWLKANLESCREELLEANRENLPLIRRMLDQVAGDAAVLQMDKEDLIEDFLIAYQESLTEIGFNTREITRMAAAALVS | active fatty aldehyde decarbonylase
PMN2A—1863: Prochlorococcus mariunus NATL2A putative decarbonylase (SEQ ID NO: 21) (protein, listed as Prochlorococcus marinus) MQAFASNNLTVEKEELSSNSLPDFTSESYKDAYSRINAVVIEGEQEAYSNFLDLAKLIPEHADELVRLGKMEKKHMNGFCACGRNLAVKPDMPFAKTFFSKLHNNFLEAFKVGDTTTCLLIQCILIESFAISAYHVYIRVADPFAKRITEGVVQDEYLHLNYGQEWLKANLETVKKDLMRANKENLPLIKSMLDEVSNDAEVLHMDKEELMEEFMIAYQDSLLEIGLDNREIARMALAAVI | active fatty aldehyde decarbonylase
Cyan7425—0398: Cyanothece sp. PCC7425 putative decarbonylase (SEQ ID NO: 29) (protein, listed as Cyanothece sp.) MPQVQSPSAIDFYSETYQDAYSRIDAIVIEGEQEAHDNYLKLTELLPDCQEDLVRLAKMEARHKKGFEACGRNLKVTPDMEFAQQFFADLHNNFQKAAAANKIATCLVIQALIIECFAIAAYNIYIPVADDFARKITENVVKDEYTHLNFGEEWLKANFDSQREEVEAANRENLPIVWRMLNQVETDAHVLGMEKEALVESFMIQYGEALENIGFSTREIMRMSVYGLSAA | active fatty aldehyde decarbonylase
